T1: GST-tagged first WD40 domain of Elp1, Q06706
T1 chain: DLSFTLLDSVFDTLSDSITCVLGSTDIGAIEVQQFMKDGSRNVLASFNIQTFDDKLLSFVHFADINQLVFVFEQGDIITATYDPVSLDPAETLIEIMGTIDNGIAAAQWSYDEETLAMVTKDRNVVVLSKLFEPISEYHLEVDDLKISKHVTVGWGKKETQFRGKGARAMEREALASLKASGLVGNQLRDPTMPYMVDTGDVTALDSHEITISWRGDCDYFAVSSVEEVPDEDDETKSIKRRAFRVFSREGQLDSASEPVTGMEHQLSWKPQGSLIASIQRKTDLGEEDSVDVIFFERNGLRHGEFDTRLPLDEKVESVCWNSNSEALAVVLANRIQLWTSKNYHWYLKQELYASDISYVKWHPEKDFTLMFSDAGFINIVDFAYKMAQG


Target: T1, GST-tagged first WD40 domain of Elp1, …
Assay: GST pull-down, quantified from Coomassie SDS-PAGE
Settings: chain shown with the change;; parent: est. 1.0; read off a plot

ratio to parent	Binder
0.11	recombinant Kti12 (wild type), His-tagged, P34253 K225A; K228A; K235A; R281A; K283A; R284A; K291A (protein) MPLVLFTGYPCSGKTTLAKHLVQLLQSKIDATPSLSKYSITYHSDESLGIKHSDYITSQDERKLRSEIISAVKRDLSKNKIVIVDSLNYIKGFRYQLHCEVKNLSTTFCVIQTLCPPETIFEWNKTSNPNPWEPELLNQLIQRYEEPNSSNRWDSPLFAILTPQDNITDYIDDICKVVFQTSKSAKNSGHNDPLSKGLQKPNSATVLKPASQSNFIQVLDIETSAIIATIMNHIASLTSIGGVSNGTRVIVSEGITDINDDGCFFVDLPIGNVVTLAQLQALAAQFINFNALRDIDQDRIGPLFADYLNKNLN
0.67	recombinant Kti12 (wild type), His-tagged, P34253 K225A; K228A; K235A (protein) MPLVLFTGYPCSGKTTLAKHLVQLLQSKIDATPSLSKYSITYHSDESLGIKHSDYITSQDERKLRSEIISAVKRDLSKNKIVIVDSLNYIKGFRYQLHCEVKNLSTTFCVIQTLCPPETIFEWNKTSNPNPWEPELLNQLIQRYEEPNSSNRWDSPLFAILTPQDNITDYIDDICKVVFQTSKSAKNSGHNDPLSKGLQKPNSATVLKPASQSNFIQVLDIETSAIIATIMNHIASLTSIGGVSNGTRVIVSEGITDINDDGCFFVDLPIGNVVTLAQLQRLKRQFINFNKLRDIDQDRIGPLFADYLNKNLN
